Assay results reported in PMC4738012 (Journal of molecular biology, 2015).

Legend:
Assay in all cases: flow cytometry on cells
[1] = target: RMF peptide on HLA-A*02 of peptide-pulsed T2 cells (Homo sapiens, HLA-A*02:01, strain)
[2] = target: MED13L peptide … on HLA-A*02:01 of peptide-pulsed T2 cells (Homo sapiens, HLA-A*02:01 (T2 cells))
[3] = target: PIGQ peptide … on HLA-A*02:01 of peptide-pulsed T2 cells (Homo sapiens, HLA-A*02:01 (T2 cells))

Measured: binding result

B1: ESK1 full-length human IgG1 antibody (antibody, V domains shown)
VH: QMQLVQSGAEVKEPGESLRISCKGSGYSFTNFWISWVRQMPGKGLEWMGRVDPGYSYSTYSPSFQGHVTISADKSTSTAYLQWNSLKASDTAMYYCARVQYSGYYDWFDPWGQGTLVTVSS
VL: not shown
binds: [1] | [2] | [3]
